This note sets out measurements from PMC8787478.

Holding throughout (experiment): EMSA
Settings in all cases: EMSA: 10 mM Tris pH 7.5, 50 mM KCl, 1 mM EDTA, 1 mM DTT, 5% glycerol, 100 ug/mL BSA, 5 ug/mL poly(dI-dC), 0.25 nM probe, 25 C; footprinting: 10 mM Tris pH 8.0 …
Background: In EMSA bound probe runs differently from free probe, usually more slowly.

Data set [1] has as its target T1, His6-AlgR (Pseudomonas aeruginosa PAK) (UniProt P26275).
T1 sequence: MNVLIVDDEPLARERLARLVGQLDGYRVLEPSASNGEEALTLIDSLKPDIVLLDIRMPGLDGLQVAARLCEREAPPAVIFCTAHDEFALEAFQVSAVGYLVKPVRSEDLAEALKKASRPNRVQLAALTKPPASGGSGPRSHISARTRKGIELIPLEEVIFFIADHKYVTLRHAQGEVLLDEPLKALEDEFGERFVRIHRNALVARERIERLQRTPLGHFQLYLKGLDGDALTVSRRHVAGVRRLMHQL

The target in data set [2] is T2, Vfr (Pseudomonas aeruginosa) (UniProt P55222).
T2 sequence: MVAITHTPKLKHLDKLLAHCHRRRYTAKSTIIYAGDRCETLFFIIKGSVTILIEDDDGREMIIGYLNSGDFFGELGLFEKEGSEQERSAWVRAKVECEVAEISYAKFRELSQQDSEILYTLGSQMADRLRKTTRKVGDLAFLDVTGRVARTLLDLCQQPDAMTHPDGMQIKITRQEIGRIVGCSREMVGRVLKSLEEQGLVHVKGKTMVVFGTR

Data set [3] addresses T3, Vfr;His6-AlgR (Pseudomonas aeruginosa;Pseudomonas aeruginosa PAK) (UniProt P55222+P26275).
T3 sequence 1: T2 sequence
T3 sequence 2: T1 sequence

Data set [4] has as its system His6-AlgR (Pseudomonas aeruginosa PAK).

For “GCATACCGTTGCCTGGCAACTGATCCTCAACCGGCAGGGCCGGCTCCGTACCGCGAGCGCCAGGGAGAACCGGGAGAAACGTGAGCTATGCAGCACTTCCGGATGATCATGGACCAGTTGTCCTGCCCCACGGGCCGACCGTCAACGACCGCAAGACGCTCCCAGGCCCGTTTGGCATGCTTTCCAGGCGTAGAC (double strand) [PfimU WT]”, the binding entry in data set [1], in data set [2] and in data set [3] was “binds” in each case.

Take “GTACGGGCGAAATAAAGCACCGAAATGCCATCTGCCGCAAAAAACCGCGAAACAGCGCTCGTTCCGGCTTCGTCGACGAGCCGCCGGTTTTTCCTCCCGGCCAGTAATCATCGTTGCCCTTTGCCCGTCACGCAGGCCGCGCG (double strand) [PalgZ VBS1 mutant]”: the binding entry in data set [2] is “binds more weakly”.

Turning to “GTACGGGCGAAATAAAGCACCGAAATGTCATCTGCCAAATCAAACCACAGAACAGCGATACTTCCGGCTTCGTCGACGAGCCGCCGGTTTTTCCTCCCGGCCAGTAATCATCGTTGCCCTTTGCCCGTCACGCAGGCCGCGCG (double strand) [PalgZ VBS1-2-3 mutant]”, in data set [2], the binding entry is “no binding”.

For the substance “GTACGGGCGAAATAAAGCACCGAAATGTCATCTGCCAAATCAAACCACAGAACAGCGATACTTCCGGCTTCGTCGACGAGCCGCCGGTTTTTCCTCCCGGCCTGCTATCATCGTCGCACTTTGCCCGTCACGCAGGCCGCGCG (double strand) [PalgZ VBS2-3 mutant]”, the binding entry in data set [2] is given as “binds more weakly”.

For the substance “GTACGGGCGAAATAAAGCACCGAAATGTCATCTGCCAAATCAAACCGCGAAACAGCGCTCGTTCCGGCTTCGTCGACGAGCCGCCGGTTTTTCCTCCCGGCCAGTAATCATCGTTGCCCTTTGCCCGTCACGCAGGCCGCGCG (double strand) [PalgZ VBS1-3 mutant (VBS1 and VBS3)]”, the binding result in data set [2] is reported as “binds more weakly”.

In the case of “GTACGGGCGAAATAAAGCACCGAAATGTCATCTGCCAAATCAAACCGCGAAACAGCGCTCGTTCCGGCTTCGTCGACGAGCCGCCGGTTTTTCCTCCCGGCCTGCTATCATCGTCGCACTTTGCCCGTCACGCAGGCCGCGCG (double strand) [PalgZ VBS3 mutant]”, in data set [2], the binding result is recorded as “binds”.

Consider PfimU WT, for which, in data set [4], the K half is more than 351 nM.
